Measured values reported in the nanobody polyreactivity screen of Harvey et al. (2022).

Test: yeast display, Sf9 membrane polyspecificity reagent, FACS + sequencing; frameworks hold sequencing errors
Method in brief: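 Polyreactivity labels are assigned by the sorting gate from which each nanobody was recovered. The gates were low and high (top ~1%), set on anti-HA fluorescence for expression and streptavidin fluorescence for reagent binding. Before sorting, galactose-induced (36–48 hours) yeast display cells were stained for 1 hour at 4 °C with 10% biotinylated, detergent-solubilized Sf9 membrane reagent.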

Sequence	polyreactivity (PSR sort gate)
QVQLVESGGGLVQAGGSLRLSCAASGGIFAVYAMGWYRQAPGKERELVAAITWRGGSTRYADSVKGRFTISRDNAKTTVYLQMNSLKPEDTAVYYCAVRSTGYPSRYYFWGQGTQVTVSS	high polyreactivity
QVQLVESGGGLVQAGGSLRLSCAASGSTFPTYAMGWYRQAPGKERELVAAISRSGGRTYYADSVKGRFTISRDNAKNTVYLQMNSLKPEDTAVYYCAAQYRLSGGYNYDYWGQGTQVTVSS	high polyreactivity
QVQLVESGGGLVQAGGSLRLSCAASGSTFWGYTMGWYRPAPGKERELVAAITGSGGSTNYADSVKGRFTISRDNAKNTVNLQMNSLKPEDTAVYYCAADVFTARRRYDYWGQGTQVTVSS	low polyreactivity
QVQLVESGGGLVQAGGSLRLSCAASGSTFVAYTMGWYRQAPGKERELVAAITKRGSSTYYADSVKGRFTISRDNAKNTVYLHMNSLKPEDTAVYYCAAARSLKSYEGDYWGQGTQVTVSS	high polyreactivity
QVQLVESGGGLVQAGGSLRLSCAASASTLYSYAMGWYRQAPGKEREFVAAITSDDGSKYYADSVKGRFTISRDNAKNTVYLQMNSLKQEDTAVYYCATAASVEYNYWGEGTQVTVSS	low polyreactivity
QVQLVESGGGLVQAGGSLRLSCAASGFTFGSNVMGWYRQAPGKERELVAAIRGRGGSTYSADSVKGRFTISRDNAKNTVYLQMNSLKPEDTAVYYCNAVQRYQMGYCGQGTQVTVSS	high polyreactivity
QVQLVESGGGLVQAGGSLRLSCAASGRTFRTNAMGWYRQAPGKERELVAAITSDGTYYADSVKGRFTISRDNAKNTVYLQMNSLKPEDTAVYYCNVDDRETRDDYWGQGTQVTVSS	low polyreactivity
QVQLVESGGRLVQAGGSLRLSCAASGSIFWYNSMGWYRQAPGKERELVAAISRRGGTTYADSVKGRFSISRDNAKYTVYLQLNSLKPEDTAVSYCGTTYTSRYYPYDYWGQGTQVTVSS	high polyreactivity
QVQLVESGGGLGQAVGRLRLSCAASGGTFPQYAMGWYRQAPGKEREFVADITSRGGTTYYADSVQGRFTISRDNAKNTVYLQMNSLKPEDTAVYYCAADNPADWWGLDYWGQGTQVTVSS	low polyreactivity
QVQLVESRGGLVQAGGSLRLSCAASVSIVGIYVMGRYRQAPGKERELVAGISTRGGSTYYADSVKGRFTIARDNAKNTVYLQMNSLKPEDTAVYYCAVRAWDPYTGKSDYWGQGTQVTVSS	low polyreactivity
QVQLVESGGGLVQAGGSLRLSCAASGRTFDVNAMGWYRQAPGKERELVAAIRISGGSTYYADSVKGRFTISRDNAKITVYLQMNSLKPEDTAVYYCAAYERRYRNAYDYWGQGTQVTVSS	high polyreactivity
QVQLVESGGGLVQAGGSLRLSCAASGYTFSFYAMGWYRQAPGKERELVAAISSSDGTTYYADSEKGRFTISRDNAKNTVYLQMNSLKPEDTAVYYCNTRYVRQVVGTYTLKTRYYWGQGTQVTVSS	high polyreactivity
QVQLVESGGGLVQAGGSLRLSCAASGLTFSHYAMGWYRQAPGKERELVAGISSRGGNTYYADSVKGRFTISRDYAKNTVYLQMNSLKPEDTAVFYCNAPKPKRAYDYWGQGSQVTVSS	high polyreactivity
QVQLVESGGGLVQARGSLRLSCAASGGIFDTYVMGWYRQAPGKERELVAAISCSGSTTYADSVKGRFTISRDNAKYTVYLQMNSLKPEDTAVYYCNADYSTIWRYDYWGQGTQVTVSS	low polyreactivity
QVQLVESGGGLVQAGGSLRLSCAPSGFIFDGYTMGWYRQAPGKETELVAAITTSGTSTYYADSVKGRFTISRDNAKNTVYLQMNSLKPEDTAVYYCAARQYRHRVKYYYWGQGTQVTVSS	high polyreactivity
QVQLVESGRGLVQAGGSLRISSAASGFIYRYYAMGWYRQAPGKERELVAAINTGGTTYYADSVKGRFTISRDNAKNTVYFQMNSLKPEDTAVYYCAKRWPRSSLGDYWGQGTQVTVSS	high polyreactivity

Sequence	polyreactivity (PSR sort gate)
QVQLVESGGGLVQAGGRLRLSCAASGSTFDVYAMGWYRQAPGKERELVAVINTSGTRTYYADSVKGRFTISRDNAKNTVYLQRNSLKPEDTAVYYCNAGGHLEMNYWGQGTQVTVSS	low polyreactivity
QVQLVESGGGLVQAGGSLRLSCDASGSIFDRYVMGWYRQAPGKERELVAAITTSGDGTYYADSVKGRFTISRDNAKNSVYLQMNSLKREDTAVYYCAAVRRSWKYSTSDYWGQGTQVTVSS	low polyreactivity
QVQLVESGGGLVQAGGSLRLSCATSGRIFGTNAMGWYRQAPGKERELVADITSGGSTNYADSVKGRFTISRDNAKNTVYVQMNSLKPEDTAVYYCAADVIGDLRWYRDEYWGQGTQVTVSS	low polyreactivity
QVQLVDSGGGLLQAGGSLRLSCAASGRTCRGYAMGWYRQAPGKEWELVAAITSGGSTNYADSVKGRFTISRDNATNTVSIQMNRLKPEETAVYYCAAGRSTGQYRYYFWGLGTQVTVSS	high polyreactivity
QVQLVESGGGLVQAGGSLRLSCAASGNTFWYYAMGWYRQAPGKERELVAAISWDGGITYYADSVKGRFTISRDNAKNTVYLQMNSLKPEDTAVYYCAAETNPKYRYTLDKYEYWGQGTQVTVSS	high polyreactivity
QVQLVESGGVLVQAGGSLRLSCAASGRTFNAYTMGWYRQAPGKERELVAAITSSGGNTYYADSVKGRFTITRDNGKNTVFLQMNSLKPEDTAVYYCNTVYLYGTHDYWGQGTQLTVSS	low polyreactivity
QVQLVESGGGLVQAGGSLRLSCAASGRTFYKYGMGWYRQAPGKERELVARINSNGGSTYYADSVKGRFTISRDNAKNTVYLQMNSLKPEDTAVYYCARSYVRSYGYYYWGKGTQVTVSS	low polyreactivity
QVQLVESGGGLVQAGGSLRLSCAASGFIFDYNVMGWYSQAPGKKGSWVAAISWSGGSTYYADSVKGRFTISRDNAKNTVYLEINSLKPEDTAVYYCSSRGTSTFRGTGRYDYWGQGTQVTVSS	high polyreactivity
QVQLVESGGGLVQAGGSLRLSCAASGRTFIRNVMGWYRQAPGKERELVAAISTRGGSTYYADSVKGRFTISRDIAKNTVYLQMNSMKPEDTAVYYCASVIRCRYSYYEYDYWGQGTQETVSS	high polyreactivity
QDQLVESGGGLVQAGGSLRLSCAASGRTISGYVMGWYIQAPGKERELVATINGSGASTYYADSVKGRFTISRDNAKNTVYLQMNSLKPEDTAVYYCAAKRYRPKYEYYYWGQGTQVTVSS	high polyreactivity
QVQLEESGGGLVQAGGSLRLSCAASGFTFGSYAMGWYRQAPGKEREFVAAISLGGARTYYADSVKGRFTMSRDNAKNTVYLQMHSLKPEDTAVYYGNARGIGRSTKWSSRDYWGQGTQVTVSS	high polyreactivity
QVQLVESGGGLVQAGGSLRLSCAASGSTFRFYAMGWYRQAPGKERELVAAISKSGGITYYADSVKGRFTISRAHAKNTVYLQMNSLKPEDTSVSYCATVGLLSNFYSRFNYWGQGTPVTVSS	high polyreactivity
QVQLVESGGGLVQAGGSLRLSCAASGFTFPPYAMGWYIQAPGKERELVAGISWIGSSTYYADSVKGRFTISRDNAKNTVYLQMNSLKPEDTAVYYCNARYLLFAGGRRYYWGQGTQVTVSS	high polyreactivity
QVQLVESGGGLVQAGGSLRLSCAASGSIITWYTMGWYRQAPGKERELVAAISWSGGRTYYADSVKGRFTISRDNAKNTVYLQMNSLKPEDTAVYYCAASAYGRPPFDYWGQGTQVTVSS	high polyreactivity
QVQLVESGGGLVQAGGSLRLSCAASAYAMGWYRQAPGKERELVAAITVSGGSTHYADSVKGRFTISRDNAKNTVYLQMNSLKPEDTAVYYCNARYDVWYYYWGQGTQVTVSS	low polyreactivity
QLQLVESGGGLVQAGGSLRLSCAASGSIFNDTAMGSYRQAPGKDRELVAAISWNGGSTYYADSVKGRFTISRDNAKNTVYLQMNSLKPQDTAVYYCAVYARYWYLLHYRYGYWGQGTQVTVSS	low polyreactivity
